# *1 amine or outer side, *2 acyl side, *3 side chain or, on linkers, in order; H or OH if unused. Bridges are numbered along the chain shown (N, C = ends). Where no end group is shown, it is not given here. [ ]: non-standard residue; d: D form. The star is where a group is joined. DOTA = O=C(O)CN1CCN(CC(=O)O)CCN(CC(=O)*)CCN(CC(=O)O)CC1; N(2-mercaptoethyl)Gly = O=C(CN(CCS[*:3])[*:1])[*:2]; 4Amb = NCc1ccc(C(=O)O)cc1; Orn = NCCC[C@H](N)C(=O)O; NTEG = not defined here; Aoc = NCCCCCCCC(=O)O; GABA = NCCCC(=O)O
# Assays:
# Experiment in all cases: 125I-Tyr11-SRIF-14 displacement
# [1] = target: human cloned somatostatin receptor 1 (human) (UniProt P30872)
# human cloned somatostatin receptor 1 (human), sequence (P30872 whole entry): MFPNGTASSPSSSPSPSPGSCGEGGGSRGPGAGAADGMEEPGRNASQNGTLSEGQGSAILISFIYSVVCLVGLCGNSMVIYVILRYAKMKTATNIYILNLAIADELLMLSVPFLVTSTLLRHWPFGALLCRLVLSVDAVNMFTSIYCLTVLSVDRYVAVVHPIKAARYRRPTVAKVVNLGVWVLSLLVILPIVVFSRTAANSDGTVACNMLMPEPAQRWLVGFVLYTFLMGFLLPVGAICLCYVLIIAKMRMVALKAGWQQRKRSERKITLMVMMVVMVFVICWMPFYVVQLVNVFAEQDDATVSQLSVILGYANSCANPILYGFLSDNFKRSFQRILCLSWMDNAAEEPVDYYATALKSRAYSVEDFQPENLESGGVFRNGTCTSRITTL
# [2] = target: human cloned somatostatin receptor 2 (human) (UniProt P30874)
# human cloned somatostatin receptor 2 (human), sequence (P30874 whole entry): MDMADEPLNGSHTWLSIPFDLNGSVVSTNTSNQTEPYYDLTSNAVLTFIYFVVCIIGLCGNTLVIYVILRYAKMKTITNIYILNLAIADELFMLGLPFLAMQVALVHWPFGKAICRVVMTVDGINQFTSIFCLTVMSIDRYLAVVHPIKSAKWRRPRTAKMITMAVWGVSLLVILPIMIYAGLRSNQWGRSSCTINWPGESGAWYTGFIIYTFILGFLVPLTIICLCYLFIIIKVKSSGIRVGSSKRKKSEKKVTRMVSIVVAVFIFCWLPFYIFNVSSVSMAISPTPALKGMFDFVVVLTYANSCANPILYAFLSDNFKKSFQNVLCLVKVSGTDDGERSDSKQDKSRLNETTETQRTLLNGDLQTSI
# [3] = target: human cloned somatostatin receptor 3 (human) (UniProt P32745)
# human cloned somatostatin receptor 3 (human), sequence (P32745 whole entry): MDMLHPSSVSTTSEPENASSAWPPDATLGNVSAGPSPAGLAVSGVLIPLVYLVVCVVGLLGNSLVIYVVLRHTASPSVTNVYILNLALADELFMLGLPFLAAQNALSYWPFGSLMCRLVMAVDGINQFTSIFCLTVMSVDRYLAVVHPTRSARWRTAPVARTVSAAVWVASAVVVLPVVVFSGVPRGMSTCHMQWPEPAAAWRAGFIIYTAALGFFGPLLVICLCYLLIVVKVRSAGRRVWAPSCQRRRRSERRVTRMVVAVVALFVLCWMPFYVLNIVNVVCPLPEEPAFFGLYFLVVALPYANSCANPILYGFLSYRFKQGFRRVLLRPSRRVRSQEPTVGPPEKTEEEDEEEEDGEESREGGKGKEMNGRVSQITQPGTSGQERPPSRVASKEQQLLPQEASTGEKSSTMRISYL
# [4] = target: human cloned somatostatin receptor 5 (human) (UniProt P35346)
# human cloned somatostatin receptor 5 (human), sequence (P35346 whole entry): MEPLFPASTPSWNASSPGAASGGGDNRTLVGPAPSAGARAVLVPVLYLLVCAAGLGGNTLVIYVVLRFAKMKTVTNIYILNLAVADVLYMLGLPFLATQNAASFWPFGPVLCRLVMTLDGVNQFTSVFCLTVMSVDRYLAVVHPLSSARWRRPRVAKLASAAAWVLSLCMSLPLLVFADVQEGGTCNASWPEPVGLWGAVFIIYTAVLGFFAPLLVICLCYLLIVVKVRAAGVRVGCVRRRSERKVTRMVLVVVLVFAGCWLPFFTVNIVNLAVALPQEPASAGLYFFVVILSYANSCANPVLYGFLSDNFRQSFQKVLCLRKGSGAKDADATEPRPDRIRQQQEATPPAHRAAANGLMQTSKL
# [5] = target: human cloned somatostatin receptor 4 (human) (UniProt P31391)
# human cloned somatostatin receptor 4 (human), sequence (P31391 whole entry): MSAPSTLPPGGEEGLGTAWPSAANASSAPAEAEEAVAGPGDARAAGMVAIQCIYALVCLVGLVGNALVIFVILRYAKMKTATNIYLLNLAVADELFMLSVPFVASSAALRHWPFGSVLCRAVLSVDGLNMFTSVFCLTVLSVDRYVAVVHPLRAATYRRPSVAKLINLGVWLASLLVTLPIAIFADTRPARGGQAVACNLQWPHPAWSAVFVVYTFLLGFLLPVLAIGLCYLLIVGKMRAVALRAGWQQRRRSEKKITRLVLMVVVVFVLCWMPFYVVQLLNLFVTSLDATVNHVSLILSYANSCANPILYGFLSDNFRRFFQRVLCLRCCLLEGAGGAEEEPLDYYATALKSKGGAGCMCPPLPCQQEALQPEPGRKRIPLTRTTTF
IC50 [1] [nM],Ki [1] [nM],IC50 [2] [nM],Ki [2] [nM],IC50 [3] [nM],IC50 [4] [nM],Ki [4] [nM],% displacement at 1 nM [1] [%],% displacement at 10 nM [1] [%],% displacement at 1 nM [2] [%],% displacement at 10 nM [2] [%],% displacement at 1 nM [3] [%],% displacement at 10 nM [3] [%],% displacement at 1 nM [5] [%],% displacement at 10 nM [5] [%],% displacement at 1 nM [4] [%],% displacement at 10 nM [4] [%],Ki [3] [nM],Binder
310,260,210,110,0.9,86,48,,,,,,,,,,,,{DOTA}-[dF]RCF[dW]KTF[N(2-mercaptoethyl)Gly]-NH2 (disulfide 3-9; also: Lu complex of DOTA) [SEQ ID NO: 6]
780,640,420,220,0.9,150,82,,,,,,,,,,,,{DOTA}-[dF]RCF[dW]KTF[N(2-mercaptoethyl)Gly]-NH2 (disulfide 3-9; also: Cu complex of DOTA) [SEQ ID NO: 5]
,,,,,,,0,10,0,0,64,93,0,0,0,13,,{DOTA}-A[dF]RCF[dW]KTF[N(2-mercaptoethyl)Gly]-NH2 (disulfide 4-10; SMILES C[C@H](NC(=O)CN1CCN(CC(=O)O)CCN(CC(=O)O)CCN(CC(=O)O)CC1)C(=O)N[C@H](Cc1ccccc1)C(=O)N[C@@H](CCCNC(=N)N)C(=O)N[C@H]1CSSCCN(CC(N)=O)C(=O)[C@H](Cc2ccccc2)NC(=O)[C@H]([C@@H](C)O)NC(=O)[C@H](CCCCN)NC(=O)[C@@H](Cc2c[nH]c3ccccc23)NC(=O)[C@H](Cc2ccccc2)NC1=O) [SEQ ID NO: 12]
,,,,,,,8,14,0,2,66,95,0,0,0,0,,{DOTA}-F[dF]RCF[dW]KTF[N(2-mercaptoethyl)Gly]-NH2 (disulfide 4-10; SMILES C[C@@H](O)[C@@H]1NC(=O)[C@H](CCCCN)NC(=O)[C@@H](Cc2c[nH]c3ccccc23)NC(=O)[C@H](Cc2ccccc2)NC(=O)[C@@H](NC(=O)[C@H](CCCNC(=N)N)NC(=O)[C@@H](Cc2ccccc2)NC(=O)[C@H](Cc2ccccc2)NC(=O)CN2CCN(CC(=O)O)CCN(CC(=O)O)CCN(CC(=O)O)CC2)CSSCCN(CC(N)=O)C(=O)[C@H](Cc2ccccc2)NC1=O) [SEQ ID NO: 20]
,,,,,,,2,19,0,0,47,88,0,0,0,0,,{DOTA}-G[dF]RCF[dW]KTF[N(2-mercaptoethyl)Gly]-NH2 (disulfide 4-10; SMILES C[C@@H](O)[C@@H]1NC(=O)[C@H](CCCCN)NC(=O)[C@@H](Cc2c[nH]c3ccccc23)NC(=O)[C@H](Cc2ccccc2)NC(=O)[C@@H](NC(=O)[C@H](CCCNC(=N)N)NC(=O)[C@@H](Cc2ccccc2)NC(=O)CNC(=O)CN2CCN(CC(=O)O)CCN(CC(=O)O)CCN(CC(=O)O)CC2)CSSCCN(CC(N)=O)C(=O)[C@H](Cc2ccccc2)NC1=O) [SEQ ID NO: 11]
,,,,,,,0,5,6,2,47,88,0,0,0,3,,"K[dF]RCF[dW]KTF[N(2-mercaptoethyl)Gly]-NH2 (disulfide 4-10; not fully specified (residue 1, N-terminus); printed as (DOTA)2-Lys1-D-Phe2-Arg3-Cys4-Phe5-D-Trp6-Lys7-Thr8-Phe9-NTEG10-NH2 (cyclo 3-9); also: (DOTA)2 on Lys1, sites not given here) [SEQ ID NO: 16]"
,,,,1,,,4,10,0,0,59,91,0,0,0,12,,{DOTA}-[dF]KCF[dW]KTF[N(2-mercaptoethyl)Gly]-NH2 (disulfide 3-9; SMILES C[C@@H](O)[C@@H]1NC(=O)[C@H](CCCCN)NC(=O)[C@@H](Cc2c[nH]c3ccccc23)NC(=O)[C@H](Cc2ccccc2)NC(=O)[C@@H](NC(=O)[C@H](CCCCN)NC(=O)[C@@H](Cc2ccccc2)NC(=O)CN2CCN(CC(=O)O)CCN(CC(=O)O)CCN(CC(=O)O)CC2)CSSCCN(CC(N)=O)C(=O)[C@H](Cc2ccccc2)NC1=O) [SEQ ID NO: 9]
,,,,0.73,,,,,,,,,,,,,0.25,H-[dF]KCF[dW]KTF[N(2-mercaptoethyl)Gly]-NH2 (disulfide 3-9; SMILES C[C@@H](O)[C@@H]1NC(=O)[C@H](CCCCN)NC(=O)[C@@H](Cc2c[nH]c3ccccc23)NC(=O)[C@H](Cc2ccccc2)NC(=O)[C@@H](NC(=O)[C@H](CCCCN)NC(=O)[C@H](N)Cc2ccccc2)CSSCCN(CC(N)=O)C(=O)[C@H](Cc2ccccc2)NC1=O) [SEQ ID NO: 2]
,,,,2.4,,,,,,,27,75,,,,,,{DOTA}-[dF]KCF[dW]KTF[NTEG]-NH2 (disulfide 3-9; reading uncertain; also: Ga chelated by DOTA) [SEQ ID NO: 10]
,,,,,,,23,22,0,2,59,93,9,9,0,0,,{DOTA}-[dF][Orn]CF[dW]KTF[N(2-mercaptoethyl)Gly]-NH2 (disulfide 3-9) [SEQ ID NO: 21]
,,,,,,,0,10,0,10,61,88,5,4,0,15,,{DOTA-GABA}-[dF]RCF[dW]KTF[N(2-mercaptoethyl)Gly]-NH2 (disulfide 3-9; also: Ga complex of DOTA) [SEQ ID NO: 8]
180,150,390,320,0.43,310,170,,,,,,,,,,,0.15,H-[dF]RCF[dW]KTF[N(2-mercaptoethyl)Gly]-NH2 (disulfide 3-9; SMILES C[C@@H](O)[C@@H]1NC(=O)[C@H](CCCCN)NC(=O)[C@@H](Cc2c[nH]c3ccccc23)NC(=O)[C@H](Cc2ccccc2)NC(=O)[C@@H](NC(=O)[C@H](CCCNC(=N)N)NC(=O)[C@H](N)Cc2ccccc2)CSSCCN(CC(N)=O)C(=O)[C@H](Cc2ccccc2)NC1=O) [SEQ ID NO: 1]
,,,,,,,0,4,0,0,49,85,0,8,0,0,,{DOTA-4Amb}-[dF]RCF[dW]KTF[N(2-mercaptoethyl)Gly]-NH2 (disulfide 3-9) [SEQ ID NO: 18]
,,,,,,,6,18,1,0,49,87,0,0,0,0,,{DOTA-Aoc}-[dF]RCF[dW]KTF[N(2-mercaptoethyl)Gly]-NH2 (disulfide 3-9) [SEQ ID NO: 15]
,,,,,,,,,,,66,88,,,,,,{DOTA}-[dF]KCY[dW]KTF[N(2-mercaptoethyl)Gly]-NH2 (disulfide 3-9; SMILES C[C@@H](O)[C@@H]1NC(=O)[C@H](CCCCN)NC(=O)[C@@H](Cc2c[nH]c3ccccc23)NC(=O)[C@H](Cc2ccc(O)cc2)NC(=O)[C@@H](NC(=O)[C@H](CCCCN)NC(=O)[C@@H](Cc2ccccc2)NC(=O)CN2CCN(CC(=O)O)CCN(CC(=O)O)CCN(CC(=O)O)CC2)CSSCCN(CC(N)=O)C(=O)[C@H](Cc2ccccc2)NC1=O) [SEQ ID NO: 24]

# From patent publication US20240165282A1, “CONFORMATIONAL CONSTRAINED SOMATOSTATIN RECEPTOR 3 PEPTIDE LIGANDS AND THEIR CONJUGATES AND USES THEREOF” (STARGET PHARMA LTD., priority 2021, published 2024)
